Test results published in patent US8431396B2, “Anti-angiogenic peptides” (The Cleveland Clinic Foundation, priority 2003, dated 2013).

B1: recombinant human TIMP3 (tissue inhibitor of metalloproteinases-3) (other)
chain: CTCSPSHPQDAFCNSDIVIRAKVVGKKLVKEGPFGTLVYTIKQMKMYRGFTKMPHVQYIHTEASESLCGLKLEVNKYQYLLTGRVYDGKMYTGLCNFVERWDQLTLSQRKGLNYRYHLGCNCKIKSCYYLPCFVTSKNECLWTDMLSNFGYPGYQSKHYACIRQKGGYCSWYRGWAPPDKSIINATDP
notes: Radio-iodinated in some assays; also called rTIMP3; recombinant TIMP3

Legend:
[1] = molecular target: T1, KDR (Homo sapiens, UniProt P35968); test: [125I]VEGF binding to the surface of PAE-KDR cells; conditions: same conditions as TIMP3
T1 construct: To determine whether these receptor isoforms represent full-length VEGFR-2; expressed in transfected cells; host or cells: porcine aortic endothelial (PAE) cells
Method: Radioligand binding is expressed as percent binding and is the mean±s.e.m. of triplicate samples. […] All values are expressed as mean±s.e.m. of triplicate samples. […] Binding is expressed as mean±s.e.m.
Data were analyzed by Scatchard plot analyses.

[2] = molecular target: KDR (VEGFR2) (Homo sapiens, UniProt P35968); test: ELISA of sKDR binding to VEGF-coated plates
Method: In the assay, 96 well immunoplates were coated with VEG (80 ng/ml) as per standard procedures.

[3] = tested on: Choroidal Neovascularization (CNV); test: Laser-induced choroidal neovascularization (CNV) mouse model of AMD; assay type: in vivo, C57BL6 mice; conditions: single intravitreal injection on day 3; examined 14 days after laser
Method: We next tested the ability of intravitreal TIMP-3 tail and loop 6 peptide to inhibit Choroidal Neovascularization (CNV), a mouse model of age-related macular degeneration (AMD). C57BL6 mice (n=5) in each each group were lasered to induce CNV. On day 3 intravitreal injections [single dose] of control N terminal peptide (116) or TIMP-3 peptides (Tail peptide (SEQ ID NO: 13), Loop 6 (SEQ ID NO: 12), and Loop 5 (SEQ ID NO: 11) were administered. Animals were sacrificed at 14 days following laser and whole mount retinas were examined for evidence of CNV following injection of fluorescein dextran marker.

[4] = tested on: chick embryo chorioallantoic membrane (CAM); test: Chick embryo chorioallantoic membrane (CAM) assay of VEGF-mediated angiogenesis; assay type: in vivo, chicken
Text: The CAM assay was done as described with slight modifications. Fertilized 3-day-old white Leghorn eggs (Sunnyside, Beaver Dam, Wis.) were cracked and embryos with the yolk intact were placed in glass-bottomed Petri dishes. […] Angiogenesis was reported as the angiogenic index (mean number of tertiary branchpoints from experimental conditions minus the mean number of branchpoints from buffer controls with no angiogenic stimulator).

[5] = tested on: PAE-KDR cells; test: Endothelial cell migration toward VEGF (modified Boyden chamber); assay type: cell-based, porcine; conditions: added exogenously; VEGF165 10 ng/ml
Method: (B) Comparison of the effects of rTIMP3, rTIMP1 and BB3103 on VEGF165-induced migration of PAE-KDR cells. […] In all migration experiments, migrating cell number is expressed as mean±s.e.m. of quadruplicate samples. All experiments were done in triplicate. Open symbols, KDR-vector; closed symbols, KDR-TIMP3.*, P<0.01; **, P<0.05.
(§1) A modified Boyden chamber assay for migration and proliferation assays were carried out as described.

[6] = molecular target: T2, VEGF (Homo sapiens, UniProt P15692); test: Solid-phase direct binding of [125I]VEGF to wells coated with TIMPs
T2 construct: purchased Genentech (gift, not bought)
T2 sequence (P15692 27-191 isoform P15692-4): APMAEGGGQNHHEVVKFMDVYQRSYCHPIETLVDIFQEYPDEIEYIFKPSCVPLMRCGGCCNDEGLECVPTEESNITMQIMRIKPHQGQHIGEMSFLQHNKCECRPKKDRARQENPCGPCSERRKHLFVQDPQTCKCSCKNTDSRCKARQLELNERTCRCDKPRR

[7] = tested on: endothelial cells; test: Competitive displacement of [125I]TIMP3 from the surface of endothelial cells; assay type: binding; conditions: unlabeled VEGF 2 μg/ml, TIMP3 10 μg/ml
Method: Immunoprecipitation of cell lysates with antibodies specific for TIMP3 was followed by immunoblotting with antibodies specific for KDR (top). As a control for KDR receptor, cell lysates were immunoprecipitated with anti-bodies specific for KDR and probed with antibodies specific for KDR Immunoprecipitation with antibodies specific for KDR and immunoblotting with antibodies specific for TIMP3 (bottom) were carried out on PAE-KDR cells exposed to recombinant TIMP3 or PAE-KDR-vector and PAE-KDR cells overexpressing TIMP3, to confirm the interaction. […] Competition with unlabeled TIMP3 was carried out to ensure specificity. […] (E) In vivo interaction of KDR and TIMP3 in human placenta. Immunoprecipitation using antibodies specific TIMP3 (top) and KDR (bottom) was followed by immunoblotting with antibodies specific for KDR (top) and TIMP3 (bottom).

[8] = tested on: PAEKDR cells; test: VEGF-stimulated proliferation ([3H]thymidine) of transfected PAEKDR cells; assay type: cell-based, porcine; conditions: mock cells
Method: Cells were seeded at a density of 5000 cells/well in 24 well culture plates and cultured for 24 h in growth medium. […] High molecular weight DNA was precipitated using 5% trichloroacetic acid at 4° C. for 30 min After two washes with ice-cold H2O, 3H radioactivity was solubilized in 1 N NaOH for 20 min at room temperature, acidified by addition of 2 N HCl, and measured using a liquid scintillation counter. Each sample was assayed in triplicate and the assays were repeated at least twice.

[9] = tested on: PAEKDR cells; test: VEGF-stimulated migration (modified Boyden chamber) of transfected PAEKDR cells; assay type: cell-based, porcine; conditions: mock cells
Method: A modified Boyden chamber assay was carried out as described previously 34. Briefly, 8.0 μm pore PVPF polycarbonate membranes were pre-coated with 100 μg/ml collagen type I in 0.2 N acetic acid (Cohesion technologies, INC. Pala Alto, Calif.). […] Chamber was then incubated for 4 hrs at 37° C. in a 5% CO2 humidified incubator. Cells remaining on the top of the filter were removed. Cells on the bottom surface of the filter were fixed, stained and mounted. The number of migrating cells per well was counted microscopically.

[10] = molecular target: VEGFR1 (FLT-1) (Homo sapiens, UniProt P17948); conditions: read-out: Kd of VEGF binding to VEGFR1; cited from earlier work
[11] = molecular target: T3, KDR (VEGFR2) on the surface of PAE-KDR cells (human, UniProt P35968 20-1356); test: inhibition of [125I]VEGF binding to PAE-KDR cells by pretreatment with TIMP3
T3 construct: whole, on cells; also called KDR-vector

[12] = molecular target: T4, soluble KDR-IgG (receptor IgG chimeric protein) (UniProt P35968 20-764, limits assumed); test: solid-phase assay: displacement of [125I]VEGF165 from soluble KDR-IgG by TIMP3
T4 construct: Bought from R&D Systems; also called KDR-Fc; sKDR; not shown: IgG Fc portion
Method: Soluble KDR-Fc or FLT1-Fc (50 ng) was added to each well. […] After washing, the bound protein was solubilized with 1% SDS and 1 M NaOH and radioactivity measured in a γ-counter.

[13] = tested on: MS1 mouse endothelial cells; test: MS1 endothelial cells infected with adenovirus expressing WT-TIMP3 or TIMP3Cys1-Ser: apoptosis and [3H]thymidine incorporation; assay type: cell-based
Method: (§2) MS1 mouse endothelial cells\(American Type Culture Collection, Manassas, Va.) were cultured until 80% confluent and infected with adenovirus as described. Cells were infected at 50 or 200 plaque-forming units per cell for 18 h. Medium was then replaced with fresh complete medium and left for 48 h until analysis.
as §1

[14] = tested on: MS1 endothelial cells; test: 125I-VEGF165 binding to adenovirus-infected MS1 endothelial cells; set-up: species or system mouse; conditions: cells infected with adenovirus expressing TIMP3Cys1-Ser
Method: Radioligand binding is expressed as percent binding and is the mean±s.e.m. of triplicate samples. […] All values are expressed as mean±s.e.m. of triplicate samples. […] Binding is expressed as mean±s.e.m. Data is shown as percent binding of triplicate samples, with binding to PAE-KDR cells in the absence of any inhibitor as 100%. *, P<0.01. […] P<0.01.
as §2

[15] = tested on: MMPs; test: Reverse zymography of ECM extracts (MMP-inhibitory activity); assay type: biochemical; conditions: MS1 cells infected with Rad-TIMP3Cys1-Ser vs wild-type
Method: Conditioned medium, cell lysates and ECM fractions from transfected cells were prepared. Equal amounts of protein were loaded onto a 12% gel with 1 mg/ml gelatin plus RPE cell-conditioned medium, as a source of MMPs, for reverse zymography and processed as described.

[16] = molecular target: T5, recombinant human TIMP1 (human, UniProt P01033 24-207); test: solid-phase binding of [125I]VEGF to wells coated with TIMP1
T5 construct: also called rTIMP1

[17] = molecular target: T6, recombinant human TIMP2 (human, UniProt P16035 27-220); test: solid-phase binding of [125I]VEGF to wells coated with TIMP2
T6 construct: also called rTIMP2

[18] = molecular target: B1; test: solid-phase binding of [125I]VEGF to wells coated with TIMP3

T1 sequence (P35968 20-1356): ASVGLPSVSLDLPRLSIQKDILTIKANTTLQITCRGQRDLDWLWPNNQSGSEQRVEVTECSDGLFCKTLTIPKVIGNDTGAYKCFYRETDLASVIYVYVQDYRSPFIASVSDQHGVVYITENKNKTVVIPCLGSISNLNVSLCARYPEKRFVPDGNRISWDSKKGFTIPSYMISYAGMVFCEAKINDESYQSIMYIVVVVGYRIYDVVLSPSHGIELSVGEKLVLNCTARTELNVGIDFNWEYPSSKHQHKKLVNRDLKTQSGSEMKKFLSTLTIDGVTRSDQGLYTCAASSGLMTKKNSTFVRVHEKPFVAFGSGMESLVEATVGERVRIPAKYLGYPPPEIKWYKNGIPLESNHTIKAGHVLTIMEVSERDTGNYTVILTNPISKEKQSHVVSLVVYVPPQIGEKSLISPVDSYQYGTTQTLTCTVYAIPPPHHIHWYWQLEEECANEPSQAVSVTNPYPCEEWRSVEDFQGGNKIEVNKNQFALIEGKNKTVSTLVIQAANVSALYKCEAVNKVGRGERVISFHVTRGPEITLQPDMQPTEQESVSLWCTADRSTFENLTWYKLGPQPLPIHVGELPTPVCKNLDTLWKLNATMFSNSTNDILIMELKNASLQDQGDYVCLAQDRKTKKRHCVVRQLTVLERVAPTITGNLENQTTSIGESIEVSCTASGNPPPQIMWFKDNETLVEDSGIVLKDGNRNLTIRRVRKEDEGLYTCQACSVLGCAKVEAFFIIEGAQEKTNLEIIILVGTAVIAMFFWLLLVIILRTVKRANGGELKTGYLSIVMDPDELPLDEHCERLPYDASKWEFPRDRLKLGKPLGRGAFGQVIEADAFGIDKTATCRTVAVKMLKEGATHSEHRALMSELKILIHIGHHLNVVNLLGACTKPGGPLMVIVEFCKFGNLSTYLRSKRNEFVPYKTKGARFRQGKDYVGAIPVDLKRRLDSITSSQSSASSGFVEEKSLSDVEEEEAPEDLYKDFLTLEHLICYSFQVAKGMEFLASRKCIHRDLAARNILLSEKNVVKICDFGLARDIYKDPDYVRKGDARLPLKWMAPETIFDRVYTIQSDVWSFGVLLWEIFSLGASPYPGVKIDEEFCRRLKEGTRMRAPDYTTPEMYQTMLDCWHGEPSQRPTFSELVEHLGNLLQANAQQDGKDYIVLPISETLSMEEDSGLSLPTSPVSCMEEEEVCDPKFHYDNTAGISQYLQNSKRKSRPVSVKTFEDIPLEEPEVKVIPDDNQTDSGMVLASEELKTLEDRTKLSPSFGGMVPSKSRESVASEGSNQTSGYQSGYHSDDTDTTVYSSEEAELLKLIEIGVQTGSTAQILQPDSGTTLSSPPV
KDR (VEGFR2), sequence (P35968 20-764 limits assumed): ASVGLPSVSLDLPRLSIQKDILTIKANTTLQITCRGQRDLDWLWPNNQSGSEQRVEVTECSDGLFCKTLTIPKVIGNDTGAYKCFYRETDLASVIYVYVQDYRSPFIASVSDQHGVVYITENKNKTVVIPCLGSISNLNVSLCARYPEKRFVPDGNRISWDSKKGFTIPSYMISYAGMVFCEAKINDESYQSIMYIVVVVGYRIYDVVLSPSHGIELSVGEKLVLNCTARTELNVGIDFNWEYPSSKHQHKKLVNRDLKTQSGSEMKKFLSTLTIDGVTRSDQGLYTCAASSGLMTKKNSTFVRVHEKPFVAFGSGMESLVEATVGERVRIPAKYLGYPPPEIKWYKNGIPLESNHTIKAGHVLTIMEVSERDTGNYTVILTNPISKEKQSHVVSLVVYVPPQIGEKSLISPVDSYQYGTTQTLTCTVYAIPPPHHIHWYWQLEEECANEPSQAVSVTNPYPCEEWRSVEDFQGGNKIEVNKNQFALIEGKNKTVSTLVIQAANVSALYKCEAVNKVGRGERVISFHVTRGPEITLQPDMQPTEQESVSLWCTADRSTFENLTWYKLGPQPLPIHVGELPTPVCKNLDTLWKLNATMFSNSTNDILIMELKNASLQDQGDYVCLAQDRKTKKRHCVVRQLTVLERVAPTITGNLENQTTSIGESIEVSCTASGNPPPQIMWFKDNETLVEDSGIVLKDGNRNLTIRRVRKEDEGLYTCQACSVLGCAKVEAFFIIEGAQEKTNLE
T5 sequence (P01033 24-207 limits assumed): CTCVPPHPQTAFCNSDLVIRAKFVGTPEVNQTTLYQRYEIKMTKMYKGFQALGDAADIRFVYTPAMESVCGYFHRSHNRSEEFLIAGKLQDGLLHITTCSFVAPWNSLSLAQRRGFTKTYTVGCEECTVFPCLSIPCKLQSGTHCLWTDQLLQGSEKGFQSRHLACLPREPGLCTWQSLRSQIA
T3 sequence (P35968 20-1356): as the sequence (P35968 20-1356) above
T4 sequence (P35968 20-764 limits assumed, change not shown): as the sequence (P35968 20-764 limits assumed) above
VEGFR1 (FLT-1), sequence (P17948 27-1338, species assumed): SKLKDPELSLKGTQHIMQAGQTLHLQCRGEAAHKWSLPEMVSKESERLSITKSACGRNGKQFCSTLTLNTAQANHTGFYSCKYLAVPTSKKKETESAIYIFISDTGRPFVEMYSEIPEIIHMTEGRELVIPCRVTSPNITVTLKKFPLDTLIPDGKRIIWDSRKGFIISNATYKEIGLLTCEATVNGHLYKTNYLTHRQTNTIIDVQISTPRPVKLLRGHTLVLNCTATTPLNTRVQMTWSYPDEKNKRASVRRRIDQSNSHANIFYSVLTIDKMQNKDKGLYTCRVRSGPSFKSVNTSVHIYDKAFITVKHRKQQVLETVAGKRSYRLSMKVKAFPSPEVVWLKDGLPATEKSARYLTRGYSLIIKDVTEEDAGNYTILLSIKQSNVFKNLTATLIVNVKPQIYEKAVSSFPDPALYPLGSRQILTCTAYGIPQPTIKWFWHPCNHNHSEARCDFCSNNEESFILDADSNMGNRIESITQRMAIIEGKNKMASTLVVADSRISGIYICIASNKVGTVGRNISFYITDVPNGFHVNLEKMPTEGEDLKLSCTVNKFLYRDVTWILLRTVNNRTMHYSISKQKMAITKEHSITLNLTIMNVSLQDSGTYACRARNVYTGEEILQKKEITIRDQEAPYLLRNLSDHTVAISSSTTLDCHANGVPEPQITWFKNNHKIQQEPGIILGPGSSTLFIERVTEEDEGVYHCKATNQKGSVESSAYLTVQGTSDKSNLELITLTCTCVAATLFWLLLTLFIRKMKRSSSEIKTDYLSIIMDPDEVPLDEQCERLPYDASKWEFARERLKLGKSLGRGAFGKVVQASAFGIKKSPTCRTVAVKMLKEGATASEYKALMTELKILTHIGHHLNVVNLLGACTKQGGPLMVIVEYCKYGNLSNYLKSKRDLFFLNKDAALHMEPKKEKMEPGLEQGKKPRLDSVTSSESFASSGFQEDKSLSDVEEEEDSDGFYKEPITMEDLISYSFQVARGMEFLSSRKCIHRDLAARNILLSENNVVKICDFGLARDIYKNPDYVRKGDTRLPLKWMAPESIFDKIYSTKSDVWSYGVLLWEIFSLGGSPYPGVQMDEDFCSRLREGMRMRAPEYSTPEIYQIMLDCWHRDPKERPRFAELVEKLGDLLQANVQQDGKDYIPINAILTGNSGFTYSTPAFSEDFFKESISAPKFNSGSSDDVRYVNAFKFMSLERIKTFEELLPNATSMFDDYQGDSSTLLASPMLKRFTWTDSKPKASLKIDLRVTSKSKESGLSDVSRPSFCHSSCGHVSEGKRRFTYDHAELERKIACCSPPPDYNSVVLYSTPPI

O=C(NO)[C@@H](Cc1ccccc1)NS(=O)(=O)c1ccc(-c2ccccc2)cc1 [MMP-2 and MMP-9 inhibitor, (2R)-[(4-biphenylylsulfonyl)amino]-N-hydroxy-3-phenylpropionamide]
inhibition of binding of VEGF to PAE-KDR cells [1]: could not inhibit binding of VEGF

GYCSWYRGWAPPDKSIINATDP (listed as Homo sapiens) [tail peptide, synthetic peptide from the tail portion of the C-terminal region of TIMP-3]
inhibition of VEGF binding to KDR at lower doses, comparison of peptides ([2]; 0.03 μM and 0.1 μM): inhibited VEGF binding better than the Loop 6 peptide and the Loop 5 peptide
inhibition of VEGF binding to KDR ([2]; 3 μM): inhibit VEGF binding
inhibition of VEGF binding to KDR compared with recombinant TIMP-3 ([2]; 3 μM): same levels as recombinant TIMP-3
inhibition of CNV (fluorescein dextran, whole mount retina) [3]: inhibit CNV

KNECLWTDMLSNFGYPGYQSKHYACIRQKG (listed as Homo sapiens) [loop 6 peptide, synthetic peptide from loop-6 of the C-terminal region of TIMP-3]
inhibition of VEGF binding to KDR ([2]; 3 μM): inhibit VEGF binding
inhibition of CNV (fluorescein dextran, whole mount retina) [3]: inhibit CNV

TIMP1: recombinant human TIMP1 expressed in NSO myeloma cells [reference compound]
angiogenic index (tertiary branchpoints of capillaries) ([4]; VEGF plus inhibitor): 172±8
inhibition of endothelial cell migration toward VEGF [5]: not observed
inhibition of binding of VEGF to PAE-KDR cells [1]: could not inhibit the binding of VEGF to KDR
direct binding of [125I]VEGF to coated TIMP [6]: did not detect direct binding

VEGF [reference compound]
angiogenic index (tertiary branchpoints of capillaries) ([4]; VEGF alone): 190±5
inhibition of binding of labeled TIMP3 to the surface of endothelial cells [7]: could inhibit the binding of labeled TIMP3
VEGF concentration of maximum proliferative activity [8]: 15 ng/mL
VEGF concentration of maximum migratory effect [9]: 50 ng/mL
Kd [10]: 0.015 to 0.1 nM

B1
IC50 [11]: 3.3 to 4.5 µg/mL
IC50 [12]: 2.9 µg/mL

B2: TIMP3Cys1-Ser: recombinant TIMP3 protein with reduced metalloproteinase-inhibitory activity, expressed from adenovirus Rad66 (protein)
chain: STCSPSHPQDAFCNSDIVIRAKVVGKKLVKEGPFGTLVYTIKQMKMYRGFTKMPHVQYIHTEASESLCGLKLEVNKYQYLLTGRVYDGKMYTGLCNFVERWDQLTLSQRKGLNYRYHLGCNCKIKSCYYLPCFVTSKNECLWTDMLSNFGYPGYQSKHYACIRQKGGYCSWYRGWAPPDKSIINATDP
apoptosis after adenovirus infection ([13]; MS1 cells infected with wild-type or mutant virus): No apoptosis was observed
proliferative response to VEGF ([3H]thymidine incorporation) ([13]; cells infected with Rad-TIMP3Cys1-Ser): still inhibited in their proliferative response to VEGF
binding of VEGF to cell surfaces [14]: reduced binding of VEGF to its cell surfaces
metalloproteinase-inhibitory activity (reverse zymography of ECM extracts) [15]: reduced metalloproteinase-inhibitory activity

B3: C-terminal TIMP3: chimera of residues 1-126 of TIMP-2 and residues 122-188 of TIMP3 representing the isolated C-terminal domain of TIMP3 (protein, listed as Homo sapiens)
chain: CSCSPVHPQQAFCNADVVIRAKAVSEKEVDSGNDIYGNPIKRIQYEIKQIKMFKGPEKDIEFIYTAPSSAVCGVSLDVGGKKEYLIAGKAEGDGKMHITLCDFIVPWDTLSTTQKKSLNHRYQMGCCKIKSCYYLPCFVTSKNECLWTDMLSNFGYPGYQSKHYACIRQKGGYCSWYRGWAPPDKSIINATDP
inhibition of VEGF binding to KDR by TIMP3 domains ([2]; preliminary studies): inhibits binding of VEGF to KDR

B4: recombinant human VEGF165 (ligand, UniProt P15692-4 27-191, looked up)
chain: APMAEGGGQNHHEVVKFMDVYQRSYCHPIETLVDIFQEYPDEIEYIFKPSCVPLMRCGGCCNDEGLECVPTEESNITMQIMRIKPHQGQHIGEMSFLQHNKCECRPKKDRARQENPCGPCSERRKHLFVQDPQTCKCSCKNTDSRCKARQLELNERTCRCDKPRR
binding result [16]: no binding
binding result [17]: no binding
binding result [18]: no binding
